In assay [1] the target is GST fused to the TRPM8 N-terminal tail. Put plainly: pull-down; purified GST-fusion proteins of the TRPM8 tails on beads incubated overnight at 4 °C with in vitro translated AR proteins, no testosterone; fluorescence imaging or anti-AR immunoblot; normalised to the input. On the technique in general: Immunoblotting shows a protein as a band on a membrane.
Assay [2] addresses GST fused to the TRPM8 C-terminal tail. The assay is described as follows: pull-down; as a4, with 1, 10 or 100 nM testosterone during incubation of in vitro translated AR with the N- or C-terminal tail of TRPM8.

The results in this text go back to publication PMC6733924.

Chain of in vitro translated AR (P10275 whole entry, the tested form may be a part): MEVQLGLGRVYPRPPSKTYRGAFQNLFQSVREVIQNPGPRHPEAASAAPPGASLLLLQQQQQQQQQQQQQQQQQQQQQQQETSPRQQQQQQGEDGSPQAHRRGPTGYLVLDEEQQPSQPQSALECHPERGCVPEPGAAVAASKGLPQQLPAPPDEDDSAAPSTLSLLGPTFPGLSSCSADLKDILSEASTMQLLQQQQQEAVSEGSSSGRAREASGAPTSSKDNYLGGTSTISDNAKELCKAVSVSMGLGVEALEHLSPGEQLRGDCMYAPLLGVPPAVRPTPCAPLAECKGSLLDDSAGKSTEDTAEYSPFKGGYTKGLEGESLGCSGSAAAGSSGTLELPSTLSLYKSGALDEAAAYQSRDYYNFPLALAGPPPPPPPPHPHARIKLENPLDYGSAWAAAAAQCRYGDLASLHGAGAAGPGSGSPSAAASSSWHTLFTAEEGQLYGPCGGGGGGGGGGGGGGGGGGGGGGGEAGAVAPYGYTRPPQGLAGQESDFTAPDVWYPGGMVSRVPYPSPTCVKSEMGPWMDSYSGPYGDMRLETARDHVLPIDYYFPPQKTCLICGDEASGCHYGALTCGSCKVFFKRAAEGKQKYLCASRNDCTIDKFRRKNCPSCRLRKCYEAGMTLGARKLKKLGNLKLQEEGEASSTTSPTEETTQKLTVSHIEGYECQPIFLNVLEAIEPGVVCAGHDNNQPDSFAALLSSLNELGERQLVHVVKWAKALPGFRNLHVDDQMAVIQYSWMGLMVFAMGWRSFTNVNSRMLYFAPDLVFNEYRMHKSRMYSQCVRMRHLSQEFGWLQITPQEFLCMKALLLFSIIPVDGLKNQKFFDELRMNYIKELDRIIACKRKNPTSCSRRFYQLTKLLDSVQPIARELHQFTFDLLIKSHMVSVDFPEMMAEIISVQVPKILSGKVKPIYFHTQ

Turning to “in vitro translated AR (from UniProt P10275 1-920) (natural protein)”, the percent stronger pull-down by M8-Nt than by M8-Ct in assay [1] was 48%. Further, in assay [2], the percent decrease of pulled-down AR with 1 nM testosterone worked out at 43%, the percent decrease of pulled-down AR with 10 nM testosterone turned out to be 65.6% and the percent decrease of pulled-down AR with 100 nM testosterone was 93.1%.
